Consider 12 molecules from patent US20110098224A1, “PROTEIN KINASE C PEPTIDE MODULATORS OF ANGIOGENESIS” (priority 2005, published 2011).

A short description of series [1]: Stability testing of peptide variants (scored). It counts as physicochemical. From the text:
Stability, Miles Assay activity and corneal angiogenesis activities of a number of the peptides were investigated, and scored.

For series [2], the system named is primary rat retinal pigment epithelial cells (RPEs). Particulars: cited from earlier work.
Series [3] concerns VEGF-induced vascular permeability. As to the kind of experiment: Miles assay (Evans Blue dye extravasation after intradermal VEGF with PKC modulator). Particulars: increasing VEGF doses. The series is classed as in vivo. Here is the method:
In this study animals were injected intravenously with Evans Blue Dye. Animals were administered VEGF in increasing doses with a PKC modulator intradermally. […] The spots were removed, the dye extracted and quantities were measured spectrophotometrically.
A parent compound, βIV5-3 (SEQ ID NO:6) and a peptide variant—a linear version of the peptide, linear βI, having the sequence […] (SEQ ID NO:18)—were tested in the Miles assay.
The Miles assay was similarly performed with a βIPKC (βIV5-3 (SEQ ID NO:6)) inhibitor, a βIIPKC (βIIV5-3 (SEQ ID NO:8)) inhibitor, a classical ((β-, α-, γPKC) PKC inhibitor (βC2-4 (SEQ ID NO:10), and the scrambled control 1 peptide from Example 2 (SEQ ID NO:12) conjugated to TAT (SEQ ID NO:5).

The nature of series [4]: Topical distribution of radiolabeled TAT peptide after instillation to rabbit eyes. It counts as in vivo. Particulars: rabbit eye. The method, then:
Radiolabeled TAT peptide [^14C]-YGXaaRKKRRQRRR (SEQ ID NO:19) (10 μCi) was applied in 5 instillations to each eye (50 μCi total—4 rabbits, 2 eyes each, n=8 eyes, 3 mg total applied to each eye). Each application was 1 hour apart, animals sacrificed 15 minutes after last application. Tissue samples were taken and assayed to determine topical distribution.

The next series relates to new vessel growth. Particulars: rats, given systemically; cited from earlier work.

GKLFIMNAGGYGRKKRRQRRR [Linear bI (6)]: the Stability testing result in series [1] is recorded as “++”.
As to `CCCCCCCCCCCCCC(=O)O[C@@H]1[C@@H](C)[C@@]2(O)[C@@H](C=C(CO)C[C@]3(O)C(=O)C(C)=C[C@@H]23)[C@@H]2C(C)(C)[C@]12OC(C)=O` [PMA], the “PKC-delta level in RPEs” value in series [2] (exposure for 24 hours) is reported as “significantly down regulated”. Also, the “Secretion of VEGF” value in series [2] (normal or high glucose, or hypoxia, treatment for 24 hours) is “significantly reduced”.
As for GQEVIRNGGYGRKKRRQRRR [linear bII], in series [1], the Stability testing entry is reported as “−”.
With “GKLFIMNGGYGRKKRRQRRR (GKLFIMNLSGYGRKKRRQRRR) [linear bI, a linear version of the peptide βIV5-3]”, the “VEGF-induced vascular permeability in comparison to vehicle alone” value in series [3] is listed as “reduced vascular permeability”.
Consider GKLFIMNADGYGRKKRRQRRR [Linear bI (4)], for which the Stability testing result in series [1] is “++”.
Regarding “[^14C]-YGXaaRKKRRQRRR [Radiolabeled TAT peptide]”, the “Topical distribution, Sclera” value in series [4] (5 instillations 1 hour apart, 3 mg total per eye, 15 minutes after last application) was found to be 28.4 μ/g tissue. In series [4] (topical), the “Choroid, applied total dose” value was 0.003%; the “Retina, applied total dose” value is listed as 0.001%; the “Sclera, applied total dose” value was 0.134%; the “Vitreous, applied total dose” value was 0.006%.
Take GKLFIMNLGYGRKKRRQRRR [Linear bI (5)]: the Stability testing entry in series [1] was “+++”.
Same read-out and setting: the value for “GEEVIRNISGYGRKKRRQRRR [bII linear analog]” was “+++”; that for “GKLFIMNLSGYGRKKRRQRRR (GKLFIMNAGGYGRKKRRQRRR) [bI linear analog]” was “++”.
GKLFIMNLDGYGRKKRRQRRR [Linear bI (3)]: the Stability testing entry in series [1] is on record as “++”.
GSLNPEWNETGGYGRKKRRQRRR [linear bC2-4]: the Stability testing result in series [1] is given as “+++”.
Regarding `Cn1cc(C2=C(c3cn(C4CCN(Cc5ccccn5)CC4)c4ccccc34)C(=O)NC2=O)c2ccccc21` [LY317615], in the series on new vessel growth, the new vessel growth entry is given as “prevent new vessel growth”.
